Experimental data: US20210364527A1 (QUANTUM SI, published 2021)
Substitutions are numbered along the chain they refer to. Primed or numbered codes have the meaning given here. Ends that are not written are not given here. FITC′ = not defined here

B1: PS545 (other)
chain: MSEPMTLPAIPQPRLKERTQRQPPYNVILLNDDDHSYEYVIAMLQVLFGYPREKGYQMAKEVDSTGRVILLTTTREHAELKQEQIHAFGPDPLMARCQGSMTAVIEPAV
B2: Planctomycetia bacterium ClpS homolog (PS557) (other)
chain: MPTAASATESAIEDTPAPARPEVDGRTKPKRQPRYHVVLWNDDDHTYQYVVVMLQSLFGHPPERGYRLAKEVDTQGRVIVLTTTREHAELKRDQIHAFGYDRLLARSKGSMKASIEAEE
B3: Vombatus ursinus UBR-box domain (PS522) (other)
chain: MLCGKVFKSGETTYSCRDCAIDPTCVLCMNCFQSSVHKNHRYKMHTSTGGGFCDCGDTEAWKTGPFCTIHEP
B4: FITC-labeled RA peptide RAKLDEESILKQK-FITC (peptide)
peptide: RAKLDEESILKQK-{FITC′}
B5: RA peptide (N-terminal arginine, penultimate alanine; rest of sequence not given) (peptide)
peptide: RAKLDEESILKQK-{FITC′}
B6: PS371 (other)
chain: MATETIERPRTRDPGSGLGGHWLVIVLNDDHNTFDHVAKTLARVIPGVTVDDGYRFADQIHQRGQAIVWRGPKEPAEHYWEQLQDAGLSMAPLERH
B7: Kluyveromyces marxianus UBR1 (PS621) (other)
chain: MHSKFSHAGRICGAKFKVGEPIYRCKECSFDDTCVLCVNCFNPKDHTGHHVYTTICTEFNNGICDCGDKEAWNHTLFCKAEEG
notes: UBR-streptavidin complex in fluorescence polarization
B8: PS551 (other)
chain: MPSAAPAKPKTKRQSRTQGMPPYNVVLLDDDDHTYGYVIEMLNKVFGHPPEKGFELATEVDKNGRVIVMTTNLEVAELKRDEVHAFGPDPLMPRSKGSMSAVVERAG
B9: Agrobacterium tumifaciens ClpS1 (atClpS1) (other)
chain: MIAEPICMQGEGDGEDGGTNRGTSVITRVKPKTKRPNLYRVLLLNDDYTPMEFVIHILERFFQKDREAATRIMLHVHQHGVGECGVFTYEVAETKVSQVMDFARQHQHPLQCVMEKK
notes: also called A. tumefaciens ClpS1; atClpS1 (WT)
B10: PS558 (other)
chain: MTATTADPDRTTAEKTTKKARRSGQPKRQPRYHVILWNDNDHTYQYVVAMLQQLFGHPATTGLKLATEVDRTGRAVILTTTREHAELKRDQIHAFGADRLLARSKGAMSASIEPEAE

Key:
[1] = target: T1, LA peptide LAKLDEESILKQK (XAKLDEESILKQK, X = L); assay: biolayer interferometry as in Example 12
T1 construct: Immobilized on the biolayer interferometry sensor
T1 peptide: LAKLDEESILKQK

[2] = target: T2, IA peptide IAKLDEESILKQK (XAKLDEESILKQK, X = I); assay: biolayer interferometry as in Example 12
T2 construct: Immobilized on the biolayer interferometry sensor
T2 peptide: IAKLDEESILKQK

[3] = target: T3, VA peptide VAKLDEESILKQK (XAKLDEESILKQK, X = V); assay: biolayer interferometry as in Example 12
T3 construct: Immobilized on the biolayer interferometry sensor
T3 peptide: VAKLDEESILKQK

[4] = target: T4, F peptide FAKLDEESILKQK (XAKLDEESILKQK, X = F); assay: biolayer interferometry as in Example 12
T4 construct: Immobilized on the biolayer interferometry sensor
T4 peptide: FAKLDEESILKQK

[5] = target: T1, LA peptide LAKLDEESILKQK …; assay: biolayer interferometry as in Example 12
[6] = target: T2, IA peptide IAKLDEESILKQK …; assay: biolayer interferometry as in Example 12
[7] = target: T3, VA peptide VAKLDEESILKQK …; assay: biolayer interferometry as in Example 12
[8] = target: T4, F peptide FAKLDEESILKQK (XAKLDEESILKQK, …); assay: biolayer interferometry as in Example 12
LI = target: T5, LI; assay: 3-binder dynamic sequencing of [..]; binder assigned by the binding preference in Table 1
T5 construct: also called LIFAGK
T5 chain: LIFAGK

IF = target: T6, IF; assay: as above
T6 construct: also called IFAGK
T6 chain: IFAGK

[9] = target: T7, RA peptide RAKLDEESILKQK (XAKLDEESILKQK, X = R); assay: biolayer interferometry single-point screen, 30 C
T7 construct: Biolayer interferometry single-point screen of UBR-box homologs
T7 peptide: RAKLDEESILKQK

[10] = target: T8, KA peptide KAKLDEESILKQK (XAKLDEESILKQK, X = K); assay: biolayer interferometry single-point screen, 30 C
T8 construct: Biolayer interferometry single-point screen of UBR-box homologs
T8 peptide: KAKLDEESILKQK

[11] = target: T9, Kluyveromyces lactis UBR-box domain (PS528) (Kluyveromyces lactis, UniProt O60014 101-182); assay: fluorescence polarization titration with increasing concentration of UBR protein
T9 construct: UBR-streptavidin complex in fluorescence polarization
T9 sequence: B7 chain with S6N, K17R, T47V, T54S, T75E, F77N, A80G, E81A, G83D

[12] = target: T9, Kluyveromyces lactis UBR-box domain …; assay: fluorescence polarization
[13] = target: T1, LA peptide LAKLDEESILKQK …; assay: BLI heatmap
[14] = target: T4, F peptide FAKLDEESILKQK (XAKLDEESILKQK, …); assay: BLI heatmap
[15] = target: T10, Y peptide YAKLDEESILKQK (XAKLDEESILKQK, X = Y); assay: BLI heatmap
T10 construct: Immobilized on the biolayer interferometry sensor
T10 peptide: YAKLDEESILKQK

[16] = target: T11, FITC-labeled LA peptide LAKLDEESILKQK-FITC; assay: fluorescence polarization, single point
T11 peptide: LAKLDEESILKQK-{FITC′}

[17] = target: T12, FITC-labeled IA peptide IAKLDEESILKQK-FITC; assay: fluorescence polarization, single point
T12 peptide: IAKLDEESILKQK-{FITC′}

[18] = target: T13, FITC-labeled VA peptide VAKLDEESILKQK-FITC; assay: fluorescence polarization, single point
T13 peptide: VAKLDEESILKQK-{FITC′}

[19] = target: T14, FITC-labeled FA peptide FAKLDEESILKQK-FITC; assay: fluorescence polarization, single point
T14 peptide: FAKLDEESILKQK-{FITC′}

[20] = target: T15, FITC-labeled YA peptide YAKLDEESILKQK-FITC; assay: fluorescence polarization, single point
T15 peptide: YAKLDEESILKQK-{FITC′}

[21] = target: B5; assay: fluorescence polarization
[22] = target: T8, KA peptide KAKLDEESILKQK …; assay: BLI heatmap, single-point screen
[23] = target: B4; assay: fluorescence polarization titration with increasing concentration of UBR protein
[24] = target: T1, LA peptide LAKLDEESILKQK …; assay: biolayer interferometry as in Example 12
[25] = target: T2, IA peptide IAKLDEESILKQK …; assay: biolayer interferometry as in Example 12
[26] = target: T3, VA peptide VAKLDEESILKQK …; assay: biolayer interferometry as in Example 12
[27] = target: T4, F peptide FAKLDEESILKQK (XAKLDEESILKQK, …); assay: biolayer interferometry as in Example 12
[28] = target: T16, FA peptide (N-terminal phenylalanine, penultimate alanine; rest of sequence not given); assay: binder-on-chip single-molecule assay; set-up: unit not given here
T16 construct: they may differ; Dye- or FITC-labelled in some assays; also called phenylalanine peptide; N-terminal FA peptide

[29] = target: T17, YA peptide (N-terminal tyrosine, penultimate alanine; rest of sequence not given); assay: binder-on-chip single-molecule assay; set-up: unit not given here
T17 construct: they may differ; also called tyrosine peptide

[30] = target: T18, WA peptide (N-terminal tryptophan, penultimate alanine; rest of sequence not given); assay: binder-on-chip single-molecule assay; set-up: unit not given here
T18 construct: they may differ; also called tryptophan peptide

[31] = target: LF peptide (N-terminal LF; rest of sequence not given); assay: binder-on-chip single-molecule assay; set-up: unit not given here
MA = target: T19, MA; assay: biolayer interferometry, response against 1/kdis
T19 chain: MAKLDEESILKQK

[32] = target: T2, IA peptide IAKLDEESILKQK …; assay: biolayer interferometry, response against 1/kdis
[33] = target: T3, VA peptide VAKLDEESILKQK …; assay: biolayer interferometry, response against 1/kdis
[34] = target: T1, LA peptide LAKLDEESILKQK …; assay: biolayer interferometry as in Example 12
[35] = target: T2, IA peptide IAKLDEESILKQK …; assay: biolayer interferometry as in Example 12
[36] = target: T3, VA peptide VAKLDEESILKQK …; assay: biolayer interferometry as in Example 12
[37] = target: T4, F peptide FAKLDEESILKQK (XAKLDEESILKQK, …); assay: biolayer interferometry as in Example 12
[38] = target: T20, ClpS from Thermosynochoccus elongatus (teClpS) (Thermosynechococcus elongatus, UniProt Q8DJY3 6-94); assay: biolayer interferometry
T20 construct: Dye-labelled or streptavidin-complexed depending on the assay; also called Thermosynechococcus elongatus ClpS
T20 sequence: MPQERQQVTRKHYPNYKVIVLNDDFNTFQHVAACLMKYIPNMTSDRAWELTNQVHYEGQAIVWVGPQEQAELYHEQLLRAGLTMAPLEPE

B1
binding result [1]: binds | binding result [2]: binds | binding result [3]: binds | binding result [4]: no binding

B2
binding result [5]: binds | binding result [6]: binds | binding result [7]: binds | binding result [8]: no binding | binding result (LI): binds | binding result (IF): binds

B3
binding result [9]: binds | binding result [10]: binds

B4
Kd [11]: 460 nM

B5
Kd [12]: 403 nM

B6
binding result [13]: binds | binding result [14]: binds | binding result [15]: binds | binding result [16]: binds | binding result [17]: no binding | binding result [18]: no binding | binding result [19]: binds | binding result [20]: binds

B7
Kd [21]: 321 nM | binding result [22]: binds | Kd [23]: 420 nM

B8
binding result [24]: binds | binding result [25]: binds | binding result [26]: binds | binding result [27]: no binding

B9
Mean pulse width [28]: 0.66 | Median PW [28]: 0.36 | Mean pulse width [29]: 0.77 | Median PW [29]: 0.4 | Mean pulse width [30]: 0.39 | Median PW [30]: 0.24 | Mean pulse width [31]: 0.3 | Median PW [31]: 0.18 | binding result (MA): no binding | binding result [32]: no binding | binding result [33]: no binding

B10
binding result [34]: binds | binding result [35]: binds | binding result [36]: binds | binding result [37]: no binding

IRKLDEESILKQK (Biolayer interferometry) [IR peptide IRKLDEESILKQK (XXKLDEESILKQK, XX = IR)]
binding result [38]: binds
